Data published in the supplement of paper PMC9112550, “Optimization of the antimicrobial peptide Bac7 by deep mutational scanning” (BMC Biology, 2022).

System: Escherichia coli TOP10
Test: shrunken log2 fold change of peptide-encoding DNA abundance (4.5 h post-induction vs induction); higher = less antimicrobial activity (less host growth inhibition)
Settings: time post-induction: 4.5 h; library: site-saturation at positions 5, 18, 19, 20
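Further: peptides expressed intracellularly from a pBAD plasmid library in pooled LB shake-flask culture, induced with 0.3% L-arabinose, DNA abundance read by NGS, three biological replicates, DESeq2 with apeglm shrinkage.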

Row | Sequence | shrunken log2 fold change
1 | RRIRPRPPRLPRPRPRPIYAPRP | -0.0839
2 | RRIRYRPPRLPRPRPRPWCSPRP | -0.504
3 | RRIRIRPPRLPRPRPRPGRVPRP | 0.0447
4 | RRIRTRPPRLPRPRPRPSIQPRP | -0.865
5 | RRIRRRPPRLPRPRPRPLLWPRP | 0.421
6 | RRIRERPPRLPRPRPRPGGLPRP | -0.00977
7 | RRIRLRPPRLPRPRPRPAREPRP | 0.678
8 | RRIRVRPPRLPRPRPRPLIHPRP | -0.393
9 | RRIRGRPPRLPRPRPRPKYIPRP | 0.167
10 | RRIRYRPPRLPRPRPRPMFQPRP | -0.136
11 | RRIRNRPPRLPRPRPRPNMQPRP | -0.184
12 | RRIRTRPPRLPRPRPRPRCEPRP | 0.117
13 | RRIRSRPPRLPRPRPRPGEYPRP | -0.275
14 | RRIRRRPPRLPRPRPRPERRPRP | 0.418
15 | RRIRKRPPRLPRPRPRPNPTPRP | 0.249
16 | RRIRARPPRLPRPRPRPSCMPRP | 0.29
17 | RRIRGRPPRLPRPRPRPEYAPRP | 1.26
18 | RRIRIRPPRLPRPRPRPDCHPRP | -0.154
19 | RRIRERPPRLPRPRPRPTMGPRP | -0.253
20 | RRIRERPPRLPRPRPRPDTRPRP | 0.0127
21 | RRIRARPPRLPRPRPRPEDLPRP | 0.0217
22 | RRIRERPPRLPRPRPRPMLQPRP | -0.161
23 | RRIRARPPRLPRPRPRPKHRPRP | 0.556
24 | RRIRWRPPRLPRPRPRPRQVPRP | 0.16
25 | RRIRIRPPRLPRPRPRPAGKPRP | 0.0304

Row | Sequence | shrunken log2 fold change
26 | RRIRHRPPRLPRPRPRPVAQPRP | 0.0207
27 | RRIRGRPPRLPRPRPRPKRFPRP | -0.0242
28 | RRIRMRPPRLPRPRPRPAFIPRP | -0.398
29 | RRIRVRPPRLPRPRPRPYDEPRP | -0.0163
30 | RRIRLRPPRLPRPRPRPVLAPRP | 0.104
31 | RRIRPRPPRLPRPRPRPVCDPRP | 0.333
32 | RRIRTRPPRLPRPRPRPQMIPRP | -0.346
33 | RRIRARPPRLPRPRPRPPQSPRP | 0.993
34 | RRIRNRPPRLPRPRPRPNHDPRP | -0.602
35 | RRIRNRPPRLPRPRPRPMFGPRP | -0.23
36 | RRIRQRPPRLPRPRPRPTFDPRP | 0.168
37 | RRIRARPPRLPRPRPRPKGRPRP | 0.368
38 | RRIRLRPPRLPRPRPRPGDQPRP | 0.0619
39 | RRIRQRPPRLPRPRPRPVMSPRP | -0.215
40 | RRIRQRPPRLPRPRPRPTETPRP | 0.0687
41 | RRIRIRPPRLPRPRPRPAWRPRP | 0.263
42 | RRIRIRPPRLPRPRPRPPIYPRP | -0.592
43 | RRIRNRPPRLPRPRPRPAGHPRP | 0.133
44 | RRIRVRPPRLPRPRPRPVTTPRP | 0.126
45 | RRIRPRPPRLPRPRPRPATIPRP | -0.118
46 | RRIRFRPPRLPRPRPRPNCTPRP | 0.0099
47 | RRIRLRPPRLPRPRPRPKMYPRP | -0.14
48 | RRIRFRPPRLPRPRPRPCNWPRP | 0.128
49 | RRIRVRPPRLPRPRPRPPTTPRP | 0.47
50 | RRIRARPPRLPRPRPRPDIQPRP | -0.149

Row | Sequence | shrunken log2 fold change
51 | RRIRLRPPRLPRPRPRPRFAPRP | 0.374
52 | RRIRSRPPRLPRPRPRPAESPRP | -0.04
53 | RRIRFRPPRLPRPRPRPMVPPRP | 0.0354
54 | RRIRCRPPRLPRPRPRPCDRPRP | -0.351
55 | RRIRARPPRLPRPRPRPLMQPRP | 0.223
56 | RRIRVRPPRLPRPRPRPMCPPRP | 0.0857
57 | RRIRCRPPRLPRPRPRPQQHPRP | -0.113
58 | RRIRSRPPRLPRPRPRPPHSPRP | 0.113
59 | RRIRCRPPRLPRPRPRPVPGPRP | 0.0667
60 | RRIRWRPPRLPRPRPRPGGRPRP | 0.418
61 | RRIRKRPPRLPRPRPRPSTWPRP | -0.18
62 | RRIRVRPPRLPRPRPRPWAIPRP | -0.0122
63 | RRIRFRPPRLPRPRPRPSNHPRP | -0.681
64 | RRIRTRPPRLPRPRPRPKDIPRP | -0.482
65 | RRIRPRPPRLPRPRPRPETMPRP | 0.00383
66 | RRIRSRPPRLPRPRPRPYSYPRP | -0.393
67 | RRIRIRPPRLPRPRPRPEVHPRP | -0.102
68 | RRIRDRPPRLPRPRPRPIHMPRP | 0.0641
69 | RRIRWRPPRLPRPRPRPNEWPRP | -0.0242
70 | RRIRDRPPRLPRPRPRPYACPRP | 0.0334
71 | RRIRDRPPRLPRPRPRPHLLPRP | 0.0253
72 | RRIRCRPPRLPRPRPRPEYHPRP | -0.222
73 | RRIRARPPRLPRPRPRPGMEPRP | 0.161
74 | RRIRCRPPRLPRPRPRPYFWPRP | -0.347
75 | RRIRVRPPRLPRPRPRPDNIPRP | -0.714

Row | Sequence | shrunken log2 fold change
76 | RRIRLRPPRLPRPRPRPGECPRP | 0.159
77 | RRIRKRPPRLPRPRPRPYCSPRP | -0.0347
78 | RRIRCRPPRLPRPRPRPFMYPRP | -0.592
79 | RRIRFRPPRLPRPRPRPDVFPRP | -0.119
80 | RRIRPRPPRLPRPRPRPGRKPRP | 0.199
81 | RRIRLRPPRLPRPRPRPMEPPRP | 0.101
82 | RRIRHRPPRLPRPRPRPEMPPRP | -0.177
83 | RRIRDRPPRLPRPRPRPQNLPRP | 0.0232
84 | RRIRYRPPRLPRPRPRPQKDPRP | -0.177
85 | RRIRRRPPRLPRPRPRPESYPRP | 0.0503
86 | RRIRPRPPRLPRPRPRPHQWPRP | -0.0599
87 | RRIRGRPPRLPRPRPRPICFPRP | 0.535
88 | RRIRARPPRLPRPRPRPTSWPRP | 0.756
89 | RRIRQRPPRLPRPRPRPATPPRP | 0.331
90 | RRIRHRPPRLPRPRPRPQAWPRP | 0.00326
91 | RRIRMRPPRLPRPRPRPIEKPRP | -0.00199
92 | RRIRLRPPRLPRPRPRPDCHPRP | 0.092
93 | RRIRYRPPRLPRPRPRPTSVPRP | -0.395
94 | RRIRDRPPRLPRPRPRPTIWPRP | -0.0201
95 | RRIRGRPPRLPRPRPRPPLVPRP | 0.813
96 | RRIRLRPPRLPRPRPRPHDLPRP | -0.308
97 | RRIRFRPPRLPRPRPRPRAKPRP | 0.189
98 | RRIRARPPRLPRPRPRPNPVPRP | 0.0917
99 | RRIRRRPPRLPRPRPRPKSAPRP | 0.237
100 | RRIRIRPPRLPRPRPRPECRPRP | 0.0513

Row | Sequence | shrunken log2 fold change
101 | RRIRFRPPRLPRPRPRPWRHPRP | 0.0222
102 | RRIRWRPPRLPRPRPRPFKNPRP | -0.274
103 | RRIRARPPRLPRPRPRPPLAPRP | 0.861
104 | RRIRLRPPRLPRPRPRPHQCPRP | 0.0182
105 | RRIRHRPPRLPRPRPRPTMCPRP | -0.00396
106 | RRIRYRPPRLPRPRPRPGSTPRP | -0.0367
107 | RRIRIRPPRLPRPRPRPRAWPRP | 0.187
108 | RRIRRRPPRLPRPRPRPMPMPRP | 0.0681
109 | RRIRCRPPRLPRPRPRPVTYPRP | 0.0559
110 | RRIRNRPPRLPRPRPRPEIEPRP | 0.0339
111 | RRIRMRPPRLPRPRPRPMLHPRP | 0.0756
112 | RRIRRRPPRLPRPRPRPYSMPRP | -1.39
113 | RRIRIRPPRLPRPRPRPVWNPRP | -0.576
114 | RRIRCRPPRLPRPRPRPPDPPRP | 0.459
115 | RRIRFRPPRLPRPRPRPNDSPRP | -0.0675
116 | RRIRTRPPRLPRPRPRPYVSPRP | -0.244
117 | RRIRFRPPRLPRPRPRPVLVPRP | -0.288
118 | RRIRARPPRLPRPRPRPHHIPRP | -0.345
119 | RRIRWRPPRLPRPRPRPMCKPRP | -0.0527
120 | RRIRQRPPRLPRPRPRPAGNPRP | -0.0449
121 | RRIRPRPPRLPRPRPRPVVWPRP | 0.535
122 | RRIRFRPPRLPRPRPRPFSWPRP | -0.00262
123 | RRIRQRPPRLPRPRPRPRKIPRP | -0.064
124 | RRIRPRPPRLPRPRPRPLIMPRP | -0.131
125 | RRIRARPPRLPRPRPRPRQKPRP | 0.055

Row | Sequence | shrunken log2 fold change
126 | RRIRMRPPRLPRPRPRPEVWPRP | 1.13
127 | RRIRPRPPRLPRPRPRPPFGPRP | 0.432
128 | RRIRARPPRLPRPRPRPNNTPRP | -0.423
129 | RRIRPRPPRLPRPRPRPHKWPRP | -0.216
130 | RRIRWRPPRLPRPRPRPFGNPRP | -0.0165
131 | RRIRKRPPRLPRPRPRPHGAPRP | 0.594
132 | RRIRGRPPRLPRPRPRPAHCPRP | 1.06
133 | RRIRCRPPRLPRPRPRPQMGPRP | -0.273
134 | RRIRRRPPRLPRPRPRPCDAPRP | 0.221
135 | RRIRGRPPRLPRPRPRPPPTPRP | 1.47
136 | RRIRNRPPRLPRPRPRPTPNPRP | 0.185
137 | RRIRARPPRLPRPRPRPWSKPRP | -0.27
138 | RRIRTRPPRLPRPRPRPWPKPRP | 0.218
139 | RRIRSRPPRLPRPRPRPLICPRP | -0.221
140 | RRIRQRPPRLPRPRPRPVWRPRP | 0.205
141 | RRIRLRPPRLPRPRPRPVWYPRP | -0.277
142 | RRIRVRPPRLPRPRPRPAATPRP | 0.609
143 | RRIRARPPRLPRPRPRPTHCPRP | 0.518
144 | RRIRLRPPRLPRPRPRPASGPRP | 0.373
145 | RRIRDRPPRLPRPRPRPYCMPRP | -0.28
146 | RRIRCRPPRLPRPRPRPNYGPRP | -0.297
147 | RRIRYRPPRLPRPRPRPNFSPRP | -0.401
148 | RRIRSRPPRLPRPRPRPVSYPRP | -0.0884
149 | RRIRMRPPRLPRPRPRPKMYPRP | 0.0587
150 | RRIRHRPPRLPRPRPRPRKRPRP | 0.246
